Measurements published in patent US11969464B2, “Amidated peptides and their deamidated counterparts displayed by HLA-A*02 for use in immunotherapy against different types of cancers” (Immatics Biotechnologies GmbH, priority 2020, dated 2024).

Assays:
HLA-A*02:01 = HLA-A*02:01 (Homo sapiens, UniProt P04439, D140Y/D185E/D98H/E176V/E277Q/G131W/G231S/I119V/I121R/I166T/I218V/L300P/L318F/N151K/N90K/P208A/P217A/Q86G/Q94H/R138H/R169H/T345S); assay: MHC binding assay (UV-ligand exchange, anti-β2m ELISA); conditions: peptide exchange yield, binding to HLA-A*02:01
Text: Candidate peptides for T cell based therapies according to the present invention were further tested for their MHC binding capacity (affinity). The individual peptide-MHC complexes were produced by UV-ligand exchange, where a UV-sensitive peptide is cleaved upon UV-irradiation and exchanged with the peptide of interest as analyzed. Only peptide candidates that can effectively bind and stabilize the peptide-receptive MHC molecules prevent dissociation of the MHC complexes. To determine the yield of the exchange reaction, an ELISA was performed based on the detection of the light chain (β2m) of stabilized MHC complexes. The assay was performed as generally described in Rodenko et al. (Rodenko et al., 2006).
96 well MAXISorp plates (NUNC) were coated over night with 2 μg/ml streptavidin in PBS at room temperature, washed 4× and blocked for 1 h at 37° C. in 2% BSA containing blocking buffer. Refolded HLA-A*02:01/MLA-001 monomers served as standards, covering the range of 15-500 ng/ml. Peptide-MHC monomers of the UV-exchange reaction were diluted 100-fold in blocking buffer. Samples were incubated for 1 h at 37° C., washed four times, incubated with 2 μg/ml HRP conjugated anti-β2m for 1 h at 37° C., washed again and detected with TMB solution that is stopped with […]. Absorption was measured at 450 nm. Candidate peptides that show a high exchange yield (preferably higher than 50%, most preferred higher than 75%) are generally preferred for a generation and production of antibodies or fragments thereof, and/or T cell receptors or fragments thereof, as they show sufficient avidity to the MHC molecules and prevent dissociation of the MHC complexes.

CD8+ T cells = assay: In vitro T cell priming assay with aAPCs loaded with peptide/MHC complexes and anti-CD28, pMHC multimer readout; type: cell-based, human; conditions: percentage of positive wells and donors (among evaluable), healthy HLA-A*02+ donors
Text: In order to obtain information regarding the immunogenicity of the TUMAPs of the present invention, the inventors performed investigations using an in vitro T cell priming assay based on repeated stimulations of CD8+ T cells with artificial antigen presenting cells (aAPCs) loaded with peptide/MHC complexes and anti-CD28 antibody.
In order to perform in vitro stimulations by artificial antigen presenting cells loaded with peptide-MHC complex (pMHC) and anti-CD28 antibody, the inventors first isolated CD8+ T cells from fresh HLA-A*02 leukapheresis products via positive selection using CD8 microbeads (Miltenyi Biotec, Bergisch-Gladbach, Germany) of healthy donors obtained from the University clinics Mannheim, Germany, after informed consent.
PBMCs and isolated CD8+ lymphocytes were incubated in T cell medium (TCM) until use consisting of RPMI-Glutamax (Invitrogen, Karlsruhe, Germany) supplemented with 10% heat inactivated human AB serum (PAN-Biotech, Aidenbach, Germany), 100 U/ml Penicillin/100 μg/ml Streptomycin (Cambrex, Cologne, Germany), 1 mM sodium pyruvate (CC Pro, Oberdorla, Germany), 20 μg/ml Gentamycin (Cambrex). 2.5 ng/ml IL-7 (PromoCell, Heidelberg, Germany) and 10 U/ml IL-2 (Novartis Pharma, Nurnberg, Germany) were also added to the TCM at this step.
Generation of pMHC/anti-CD28 coated beads, T cell stimulations and readout was performed in a highly defined in vitro system using four different pMHC molecules per stimulation condition and 8 different pMHC molecules per readout condition.
The purified co-stimulatory mouse IgG2a anti human CD28 Ab 9.3 (Jung et al., 1987) was chemically biotinylated using Sulfo-N-hydroxysuccinimidobiotin as recommended by the manufacturer (Perbio, Bonn, Germany). Beads used were 5.6 μm diameter streptavidin coated polystyrene particles (Bangs Laboratories, Illinois, USA).
800.000 beads/200 μl were coated in 96-well plates in the presence of 4×12.5 ng different biotin-pMHC, washed and 600 ng biotin anti-CD28 were added subsequently in a volume of 200 μl. Stimulations were initiated in 96-well plates by co-incubating 1×10^6 CD8+ T cells with 2×10^5 washed coated beads in 200 μl TCM supplemented with 5 ng/ml IL-12 (PromoCell) for 3 days at 37° C. Half of the medium was then exchanged by fresh TCM supplemented with 80 U/ml IL-2 and incubating was continued for 4 days at 37° C. This stimulation cycle was performed for a total of three times. For the pMHC multimer readout using 8 different pMHC molecules per condition, a two-dimensional combinatorial coding approach was used as previously described (Andersen et al., 2012) with minor modifications encompassing coupling to 5 different fluorochromes. Finally, multimeric analyses were performed by staining the cells with Live/dead near IR dye (Invitrogen, Karlsruhe, Germany), CD8-FITC antibody clone SK1 (BD, Heidelberg, Germany) and fluorescent pMHC multimers. For analysis, a BD LSRII SORP cytometer equipped with appropriate lasers and filters was used. Peptide specific cells were calculated as percentage of total CD8+ cells. Evaluation of multimeric analysis was done using the FlowJo software (Tree Star, Oregon, USA). In vitro priming of specific multimer+CD8+ lymphocytes was detected by comparing to negative control stimulations.

Q: What does the source list for “6 (NLYNDLTNV; peptide displayed by HLA-A*02) [compound 6]”?
A: Peptide exchange (HLA-A*02:01): +++ (≥50% = +++); Wells positive [%] (CD8+ T cells): + (<20% = +)

Q: With “7 (ALADLTGTV; peptide displayed by HLA-A*02) [compound 7]” as the substance, how does the Peptide exchange (HLA-A*02:01) read?
A: ++++ (≥75% = ++++)

Q: And the “Wells positive [%]” value (CD8+ T cells)?
A: + (<20% = +)

Q: Which Peptide exchange (HLA-A*02:01) does the source give for “8 (KLAPDLTEL; peptide displayed by HLA-A*02) [compound 8]” here?
A: +++ (≥50% = +++)

Q: And the “Wells positive [%]” value (CD8+ T cells)?
A: + (<20% = +)

Q: How did the Peptide exchange (HLA-A*02:01) turn out when “47 (VIDSTLVKV; peptide displayed by HLA-A*02) [compound 47]” was run?
A: +++ (≥50% = +++)

Q: What about the “Wells positive [%]” value (CD8+ T cells) of the same substance?
A: ++ (20%-49% = ++)

Q: With “65 (ILLDKSTVL; peptide displayed by HLA-A*02) [compound 65]” as the substance, how does the Peptide exchange (HLA-A*02:01) read?
A: ++++ (≥75% = ++++)

Q: And the “Wells positive [%]” value (CD8+ T cells)?
A: + (<20% = +)

Q: “74 (KILDFTGPLFL; peptide displayed by HLA-A*02) [compound 74]” was tested. Which Peptide exchange (HLA-A*02:01) did it give?
A: ++++ (≥75% = ++++)

Q: For “75 (KLHDTSFCL; peptide displayed by HLA-A*02) [compound 75]”, which Peptide exchange (HLA-A*02:01) is on record?
A: ++++ (≥75% = ++++)

Q: Which results are given for “76 (SLLRDFTLV; peptide displayed by HLA-A*02) [compound 76]”?
A: Peptide exchange (HLA-A*02:01): ++++ (≥75% = ++++); Wells positive [%] (CD8+ T cells): + (<20% = +)

Q: With “77 (YLHGFDLSL; peptide displayed by HLA-A*02) [compound 77]” as the substance, how does the Peptide exchange (HLA-A*02:01) read?
A: ++++ (≥75% = ++++)

Q: “78 (AIDQTITEA; peptide displayed by HLA-A*02) [compound 78]” was tested. Which Peptide exchange (HLA-A*02:01) did it give?
A: +++ (≥50% = +++)

Q: Which Peptide exchange (HLA-A*02:01) does the source give for “79 (ALAGLVYDA; peptide displayed by HLA-A*02) [compound 79]” here?
A: ++++ (≥75% = ++++)

Q: How did the Peptide exchange (HLA-A*02:01) turn out when “80 (ALDSSLQLL; peptide displayed by HLA-A*02) [compound 80]” was run?
A: ++++ (≥75% = ++++)

Q: “81 (AVDKTQTSV; peptide displayed by HLA-A*02) [compound 81]” was tested. Which Peptide exchange (HLA-A*02:01) did it give?
A: +++ (≥50% = +++)

Q: Which Peptide exchange (HLA-A*02:01) does the source give for “82 (FLNPDGSDCTL; peptide displayed by HLA-A*02) [compound 82]” here?
A: ++++ (≥75% = ++++)

Q: For “83 (FLNVDVSEV; peptide displayed by HLA-A*02) [compound 83]”, which Peptide exchange (HLA-A*02:01) is on record?
A: ++++ (≥75% = ++++)

Q: How did the Peptide exchange (HLA-A*02:01) turn out when “84 (KMLDETVLV; peptide displayed by HLA-A*02) [compound 84]” was run?
A: +++ (≥50% = +++)

Q: With “85 (LLDITNPVL; peptide displayed by HLA-A*02) [compound 85]” as the substance, how does the Peptide exchange (HLA-A*02:01) read?
A: ++++ (≥75% = ++++)

Q: How did the Peptide exchange (HLA-A*02:01) turn out when “86 (NLADNTILV; peptide displayed by HLA-A*02) [compound 86]” was run?
A: ++++ (≥75% = ++++)

Q: For “87 (NMYDLTFHV; peptide displayed by HLA-A*02) [compound 87]”, which Peptide exchange (HLA-A*02:01) is on record?
A: ++++ (≥75% = ++++)

Q: With “88 (RLLDETVDVTI; peptide displayed by HLA-A*02) [compound 88]” as the substance, how does the Peptide exchange (HLA-A*02:01) read?
A: ++++ (≥75% = ++++)

Q: How did the Peptide exchange (HLA-A*02:01) turn out when “89 (SLFIDVTRV; peptide displayed by HLA-A*02) [compound 89]” was run?
A: ++++ (≥75% = ++++)

Q: Which Peptide exchange (HLA-A*02:01) does the source give for “90 (VLDGTEVNL; peptide displayed by HLA-A*02) [compound 90]” here?
A: ++++ (≥75% = ++++)

Q: “91 (VLKDGTLVI; peptide displayed by HLA-A*02) [compound 91]” was tested. Which Peptide exchange (HLA-A*02:01) did it give?
A: ++ (≥20% =++)

Q: Which Peptide exchange (HLA-A*02:01) does the source give for “92 (YLADFSHAT; peptide displayed by HLA-A*02) [compound 92]” here?
A: ++++ (≥75% = ++++)

Q: “93 (YLDGTFRLL; peptide displayed by HLA-A*02) [compound 93]” was tested. Which Peptide exchange (HLA-A*02:01) did it give?
A: +++ (≥50% = +++)

Q: How did the Peptide exchange (HLA-A*02:01) turn out when “94 (YLWWVNDQSL; peptide displayed by HLA-A*02) [compound 94]” was run?
A: ++++ (≥75% = ++++)

Q: With “95 (KLAPEDLADLTAL; peptide displayed by HLA-A*02) [compound 95]” as the substance, how does the Peptide exchange (HLA-A*02:01) read?
A: ++++ (≥75% = ++++)

Q: With “96 (KLDASLPAL; peptide displayed by HLA-A*02) [compound 96]” as the substance, how does the Peptide exchange (HLA-A*02:01) read?
A: ++++ (≥75% = ++++)

Q: What about the “Wells positive [%]” value (CD8+ T cells) of the same substance?
A: + (<20% = +)

Q: What does the source list for “97 (KLLDGSQRV; peptide displayed by HLA-A*02) [compound 97]”?
A: Peptide exchange (HLA-A*02:01): +++ (≥50% = +++); Wells positive [%] (CD8+ T cells): + (<20% = +)

Q: What does the source list for “98 (NLLADVSTV; peptide displayed by HLA-A*02) [compound 98]”?
A: Peptide exchange (HLA-A*02:01): +++ (≥50% = +++); Wells positive [%] (CD8+ T cells): + (<20% = +)

Q: For “99 (NLLDHSSMFL; peptide displayed by HLA-A*02) [compound 99]”, which Peptide exchange (HLA-A*02:01) is on record?
A: ++++ (≥75% = ++++)

Q: With “100 (SLLFQDITL; peptide displayed by HLA-A*02) [compound 100]” as the substance, how does the Peptide exchange (HLA-A*02:01) read?
A: ++++ (≥75% = ++++)

Q: And the “Wells positive [%]” value (CD8+ T cells)?
A: + (<20% = +)

Q: What does the source list for “101 (TLDATVVEL; peptide displayed by HLA-A*02) [compound 101]”?
A: Peptide exchange (HLA-A*02:01): ++++ (≥75% = ++++); Wells positive [%] (CD8+ T cells): ++ (20%-49% = ++)

Q: For “102 (WLIDKSMEL; peptide displayed by HLA-A*02) [compound 102]”, which Peptide exchange (HLA-A*02:01) is on record?
A: ++++ (≥75% = ++++)
